From patent US7056679 (ANTYRA, dated 2006) come the findings set out here.

First the molecules themselves.
B1: DGI-2-20R-3-C12 (peptide)
peptide: RWSLPAYLCRFVSQASCNSRAAAGAPVPYPDPLEPRP
notes: not shown: phage gene III coat protein (pCANTAB5E)
B2: DGI-2-20R-4-E4 (peptide)
peptide: LTWGPQFGSLQVYSRHRGLPAAAGAPVPYPDPLEPRP
notes: as for B1
B3: DGI-2-20R-4-G32 (peptide)
peptide: LSVFRPGQFPHVGARGVSRTAAAGAPVPYPDPLEPRP
notes: as for B1
B4: DGI-2-20F-3-A6 (peptide)
peptide: FSSTGILLRSGRATAVGHVTAAAGAPVPYPDPLEPRP
notes: as for B1
B5: DGI-2-20F-3-C2 (peptide)
peptide: MAVLPAARDFGGVVQGGVSGAAAGAPVPYPDPLEPRP
notes: as for B1
B6: DGI-2-20F-3-B7 (peptide)
peptide: WAGSTDLWQLWSLWVKPELRAAAGAPVPYPDPLEPRP
notes: as for B1
B7: DGL-2-40F-3-D10 (peptide)
peptide: TLVTEGNKGSVKAHKDIGVWQLWWDWLSVTDSETVGRVSHAAAGAPVPYPDPLEPRP
notes: as for B1
B8: DGI-2-20R-4-G8 (peptide)
peptide: GMWIRPNGHMFLQGGYTARSAAAGAPVPYPDPLEPRP
notes: as for B1
B9: DGI-2-20F-3-A7 (peptide)
peptide: LSLLSVVVRSMGASAPQRQVAAAGAPVPYPDPLEPRP
notes: as for B1
B10: DGI-2-40F-4-F12 (peptide)
peptide: GLYRRAGDASVGFSRWGRFDCQVYFSVECLLGSSWGGYSAAAGAPVPYPDPLEPRP
notes: as for B1
B11: DGI-2-40F-3-B10 (peptide)
peptide: MQAASTLSTYMGAIRMGYPILHWDRGGVQRVDPGLYRGRVAAAGAPVPYPDPLEPRP
notes: as for B1
B12: DGI-2-40F-3-C6 (peptide)
peptide: QMFSKGNWLAHPEGGVALGLSRESQLFRSCREFGYCMGPMAAAGAPVPYPDPLEPRP
notes: as for B1
B13: DGI-2-40F-3-B122 (peptide)
peptide: HSGNRQSGSRRTHLLNIFCSSDTFVFPGWSAYLSRVCPGDAAAGAPVPYPDPLEPRP
notes: as for B1
B14: DGL-2-20R-3-D6 (peptide)
peptide: ACSVGTALVFPQRWWYLGRSAAAGAPVPYPDPLEPRP
notes: as for B1
B15: DGI-2-40F-3-D12 (peptide)
peptide: QGSAHVVRPPGVYDVPWKVGMFFHPQNWPNSWGRAYFRSGAAAGAPVPYPDPLEPRP
notes: as for B1
B16: DGI-2-40F-3-C92 (peptide)
peptide: RFWSVSYQGGRVMCREWGYCLPIAAAGAPVPYPDPLEPRP
notes: as for B1
B17: DGI-2-20F-3-D112 (peptide)
peptide: YDQVWNSLLAAVLGGQELVNAAAGAPVPYPDPLEPRP
notes: as for B1
B18: DGI-2-20R-3-C10 (peptide)
peptide: SLSLYWDAQVGCEVFWGYCVAAAGAPVPYPDPLEPRP
notes: as for B1
B19: DGI-2-40F-3-A24 (peptide)
peptide: RCFQDGRMLALSPTYLIRRSVSPLVVGPLPTPAAAGAPVPYPDPLEPRP
notes: as for B1
B20: DGI-2-40F-3-B11 (peptide)
peptide: LAPMFLQNQVRTWAASRRPLPAGPSNARCETGSLSPWVPCAAAGAPVPYPDPLEPRP
notes: as for B1
B21: DGI-2-40F-3-B116 (peptide)
peptide: GVVRAQQGLRYELQGDRYRLRRTQWLTVTYCSPSWAFAGCAAAGAPVPYPDPLEPRP
notes: as for B1
B22: DGI-2-20F-3-B102 (peptide)
peptide: GLRACDTYLGFCVGARRIDDAAAGAPVPYPDPLEPRP
notes: as for B1
B23: DGI-2-20R-4-F6 (peptide)
peptide: GNKCFPPHDLFWDPCDQLQSAAAGAPVPYPDPLEPRP
notes: as for B1
B24: DGI-2-20R-3-D5 (peptide)
peptide: VAFGEQIRVAMAGTLWQRWRAAAGAPVPYPDPLEPRP
notes: as for B1
B25: DGI-2-20C-3-C65 (peptide)
peptide: TPDRCLIYSSIQCLLEYSARRGSADAAAGAPVPYPDPLEPRP
notes: as for B1
B26: DGI-2-20R-4-G6 (peptide)
peptide: PAMGHCMQVLGPVLEGRSRDQVGRAAAGAPVPYPDPLEPRP
notes: as for B1

In the first assay the target is T1, antibody raised against ETAG.
T1 construct: read-out of display; also called E-tag antibody; E tag antibody
The assay can be described thus: phage ELISA, 405 nm; anti-E-tag antibody coated. As for the experimental part: (§1) For analysis of individual target binders, colonies were picked and phage prepared as described above using helper phage, M13KO7. Ninety-six-well microtiter plates were coated with 500 ng/well of specific target protein, 500 ng/well lactate dehydrogenase (LDH) irrelevant or non-specific target, 500 ng/well of positive control antibody raised against ETAG, and negative control of non-fat milk powder-PBS 2% at 4° C. overnight. Plates were then blocked with 350 microliters/well PBS containing 2% non-fat milk for 1 hr at room temperature. One hundred microliters per well of phage from isolated clones were added and plates were incubated at room temperature for 2 hr after centrifuging samples for 20 minutes at 3500 rpm at 4° C. The phage solution was then removed, and the wells were washed three times with PBS at room temperature. Antibody raised against M13 conjugated to horseradish peroxidase (Pharmacia) was diluted 1:3000 in PBS-Tween and added to each well (100 µl/well). Incubation was for 1 hr at room temperature, followed by washing with PBS-(0.5%) Tween 3 times as described. Color was developed by addition of ABTS solution (100 µl/well; Boehringer, Indianapolis, Ind.). Plates were analyzed at 405 nm. A clone was considered "positive" if the $A405$ of the well was $\geq$2-fold over background.
For the molecule B1, the “ETAG (OD)” value was determined as 14.6 OD.
As to B2, the “ETAG (OD)” value was 18.1 OD.
Still for that read-out and setting: the value for B3 was 11 OD; that for B4 was 13.2 OD.
As to B5, the “ETAG (OD)” value was determined as 11.5 OD.
On the same count and under the same terms, the figure for B6 is 16.4 OD; for B7 it is 10.3 OD.
Same read-out and setting: the figure for B8 is 14.5 OD; for B9 it is 7 OD; for B10 it is 8.7 OD.
On to B11, for which the “ETAG (OD)” value was 4.8 OD.
Same read-out and setting: the figure for B12 is 10.1 OD; for B13 it is 11 OD; for B14 it is 12.9 OD.
Same read-out and setting: the value for B15 was 7.3 OD; that for B16 was 9.8 OD; that for B17 was 19.9 OD.
Consider B18, for which the “ETAG (OD)” value is 14.7 OD.
Still for that read-out and setting: the figure for B19 is 11.7 OD; for B20 it is 7.9 OD; for B21 it is 6.5 OD.
On the same count and under the same terms, the figure for B22 is 18 OD.
Same read-out and setting: the value for B23 was 13.2 OD.
Turning to B24, the “ETAG (OD)” value was determined as 8.5 OD.
The same measure, in the same setting: the figure for B25 is 7.4 OD.
As for B26, the “ETAG (OD)” value was 11.5 OD.

The target of another assay is T2, DGI-2 polypeptide (UniProt Q15004 1-111, limits assumed).
T2 construct: Vector-derived residues or tag of pIVEX2.3 are not described for this construct; also called KIAA0101
T2 sequence (looked up): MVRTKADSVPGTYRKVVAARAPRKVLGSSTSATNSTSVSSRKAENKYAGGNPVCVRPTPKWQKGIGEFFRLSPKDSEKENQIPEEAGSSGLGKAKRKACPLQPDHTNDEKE
The assay can be described thus: phage ELISA, 405 nm; DGI-2 signal over LDH signal. As to the method: as §1
As to B1, the “DGI-2/LDH (OD)” value came out at 1.6 ratio.
With B2, the “DGI-2/LDH (OD)” value came out at 1.3 ratio.
Consider B3, for which the “DGI-2/LDH (OD)” value came out at 1.2 ratio.
On the same count and under the same terms, the value for B4 was 1.4 ratio; that for B5 was 1.3 ratio.
In the case of B6, the “DGI-2/LDH (OD)” value was determined as 1.6 ratio.
On the same count and under the same terms, the figure for B7 is 1.7 ratio; for B8 it is 1.4 ratio; for B9 it is 2.4 ratio.
In the case of B10, the “DGI-2/LDH (OD)” value came out at 2.5 ratio.
Still for that read-out and setting: the value for B11 was 1.4 ratio; that for B12 was 2.8 ratio.
The same measure, in the same setting: the figure for B13 is 2.2 ratio; for B14 it is 2.1 ratio.
B15: the “DGI-2/LDH (OD)” value came out at 2.5 ratio.
Same read-out and setting: the figure for B16 is 2.6 ratio; for B17 it is 1.4 ratio.
Same read-out and setting: the figure for B18 is 2.1 ratio; for B19 it is 1.4 ratio.
Still for that read-out and setting: the value for B20 was 2 ratio; that for B21 was 2 ratio.
As for B22, the “DGI-2/LDH (OD)” value was 2.5 ratio.
Same read-out and setting: the figure for B23 is 2.3 ratio.
On the same count and under the same terms, the figure for B24 is 1.4 ratio.
The same measure, in the same setting: the value for B25 was 1.8 ratio; that for B26 was 1.4 ratio.

For the next assay, the target named is T2, DGI-2 polypeptide. The assay can be described thus: phage ELISA, 405 nm; DGI-2 coated. As to the method: as §1
On to B1, for which the “DGI-2 (OD)” value was 1.6 OD.
Consider B2, for which the “DGI-2 (OD)” value worked out at 1.6 OD.
With B3, the “DGI-2 (OD)” value was 1.4 OD.
The same measure, in the same setting: the figure for B4 is 1.5 OD; for B5 it is 1.3 OD; for B6 it is 1.6 OD.
As for B7, the “DGI-2 (OD)” value was 1.5 OD.
Same read-out and setting: the figure for B8 is 1.5 OD; for B9 it is 2.1 OD; for B10 it is 2.2 OD.
Same read-out and setting: the figure for B11 is 1.3 OD.
The same measure, in the same setting: the figure for B12 is 2.3 OD.
B13: the “DGI-2 (OD)” value was determined as 1.7 OD.
On the same count and under the same terms, the value for B14 was 2.2 OD; that for B15 was 2.3 OD.
Consider B16, for which the “DGI-2 (OD)” value turned out to be 2.1 OD.
For B17, the “DGI-2 (OD)” value was determined as 1.4 OD.
On the same count and under the same terms, the figure for B18 is 2.2 OD.
Same read-out and setting: the figure for B19 is 1.3 OD; for B20 it is 1.8 OD; for B21 it is 1.7 OD.
Take B22: the “DGI-2 (OD)” value worked out at 2.4 OD.
Still for that read-out and setting: the figure for B23 is 2.3 OD; for B24 it is 1.5 OD.
Still for that read-out and setting: the figure for B25 is 1.8 OD; for B26 it is 1.6 OD.
